Experimental data published in patent publication US11702475B2, “Cysteine engineered fibronectin type III domain binding molecules” (Janssen Biotech, Inc., priority 2013, dated 2023).

What was measured:
EGFR on A431 cells = target: T1, EGFR on A431 cells (Homo sapiens, UniProt P00533); test: A431 cell binding assay; conditions: 1 hour room temperature
T1 construct: A431 cells (American Type Culture Collection, cat. #CRL-1555) over-express EGFR; host or cells: A431
Protocol: To assess the ability of different FN3 domains to bind EGFR in a more physiological context, their ability to bind A431 cells was measured. A431 cells (American Type Culture Collection, cat. #CRL-1555) over-express EGFR with ˜2×10^6 receptors per cell. Cells were plated at 5,000/well in opaque black 96-well plates and allowed to attach overnight at 37° C., in a humidified 5% CO2 atmosphere. FN3 domain-expressing bacterial lysates were diluted 1,000-fold into FACS stain buffer (Becton Dickinson) and incubated for 1 hour at room temperature in triplicate plates. Lysates were removed and cells were washed 3 times with 150 μL/well of FACS stain buffer. Cells were incubated with 50 μL/well of anti-penta His-Alexa488 antibody conjugate (Qiagen) diluted 1:100 in FACS stain buffer for 20 minutes at room temperature. Cells were washed 3 times with 150 μL/well of FACS stain buffer, after which wells were filled with 100 μL of FACS stain buffer and read for fluorescence at 488 nm using an Acumen eX3 reader. […]
A431 cells were plated at 5,000/well in opaque black 96-well plates and allowed to attach overnight at 37° C., in a humidified 5% CO2 atmosphere. […] Cells were washed 3 times with 150 μL/well of FACS stain buffer, after which wells were filled with 100 μL of FACS stain buffer and read for fluorescence at 488 nm using an Acumen eX3 reader. […]

EGFR = EGFR (Homo sapiens, UniProt P00533); test: Inhibition of EGF-stimulated EGFR phosphorylation in A431 cells (phospho-EGFR assay); format: cell-based; conditions: 50 ng/mL EGF, EGFR Tyr1173
Protocol: Purified EGFR-binding FN3 domains were tested for their ability to inhibit EGF-stimulated phosphorylation of EGFR in A431 cells at a single concentration. EGFR phosphorylation was monitored using the EGFR phospho(Tyr1173) kit (Meso Scale Discovery). Cells were plated at 20,000/well in clear 96-well tissue culture-treated plates (Nunc) in 100 μL/well of RPMI medium (Gibco) containing GlutaMAX™ with 10% fetal bovine serum (FBS) (Gibco) and allowed to attach overnight at 37° C. in a humidified 5% CO2 atmosphere. Culture medium was removed completely and cells were starved overnight in 100 μL/well of medium containing no FBS at 37° C. in a humidified 5% CO2 atmosphere. […] Signals were detected by addition of 150 μL/well of Read Buffer (Meso Scale Discovery) and reading on a SECTOR® Imager 6000 instrument (Meso Scale Discovery) using manufacturer-installed assay-specific default settings. Percent inhibition of the EGF-stimulated positive control signal was calculated for each EGFR-binding FN3 domain.
Data were plotted as electrochemiluminescence signal against the logarithm of the FN3 domain molar concentration and IC50 values were determined by fitting data to a sigmoidal dose response with variable slope using GraphPad Prism 4 (GraphPad Software). […]

B1: P54AR4-47: EGFR-binding FN3 domain, SEQ ID NO: 20 (protein)
chain: LPAPKNLVVSEVTEDSLRLSWGYNGDHFDSFLIQYQESEKVGEAINLTVPGSERSYDLTGLKPGTEYTVSIYGVHNVYKDTNMRGLPLSAEFTT
modifications: EGFR binding FN3 domain
- EC50 (EGFR on A431 cells): 8.6 nM
- IC50 (EGFR): 295 nM
